What was measured:
[1] = system: ZFN 9674 (GR exon 3 four-finger ZFP-FokI) (synthetic); experiment: cell_activity; conditions: paired with 9666; Ad5/F35 moi 100, CD8+ T-cells after dexamethasone selection; also Cel I cleavage in K562 (FIG. 3A)
[2] = system: ZFN 9666 (GR exon 3 four-finger ZFP-FokI) (synthetic); experiment: cell_activity; conditions: paired with 9674; Ad5/F35 moi 100, CD8+ T-cells after dexamethasone selection; also Cel I cleavage in K562 (FIG. 3A)

Sequence	activity (% GR alleles mutated) [1]	activity (% GR alleles mutated) [2]
GTTGAGGAGCTG (double strand) [GR exon 3 antisense target (nt 1353-1364)]	70	
CAACAGGACCAC (double strand) [GR exon 3 sense target (nt 1370-1381)]		70

Reference: patent US20080188000
